Source: patent publication US20040170622A1, “Methods and compositions for modulating XBP-1 activity” (President and Fellows of Harvard College, priority 2002, published 2004)
Where two headings read alike, the source gives them in different places.

Key:
XBP-1 and ATF6α = assay: UPRE (5×ATF6GL3) reporter in MEF cells with dominant negative XBP-1; type: cell-based
Method: (A) The 5×ATF6GL3 reporter plasmid was cotransfected with either pCGNATF6α or XBP-u/s plasmids into MEF cells with or without the dominant negative XBP-1 expression plasmid. 100 ng DNA was used for each transfection except for pCDNA3.1, which was added to give 1 μg of DNA in total. Luciferase assays were performed as described in the legend to FIG. 18.(B) MEF and MEF-dn-XBP cells that stably express dominant negative XBP-1 protein were treated with 10 μg/ml Tm for the indicated time periods. Total RNAs were isolated and subjected to Northern blot analysis. The same blot was hybridized sequentially with BiP, CHOP, ERdj4, p58^ipk and ATF6α probes. Ethidium bromide staining of the gel before blotting is shown at the bottom as loading control.
To make 4×XBPGL3, two complementary oligonucleotides containing the XBP-1 binding site 5^f-CGCG(TGGATGACGTGTACA)4-3′ (SEQ ID NO: 12) and 5′-GATC(TGTACACGTCATCCA)4-3^f (SEQ ID NO: 13) were annealed and ligated to the—40-Luc plasmid (Lee et al. 2000. Biochem J. 350 Pt1:131-138) digested by Mlu I and Bgl II. The UPRE reporter was constructed by inserting an annealed oligonucleotide containing two UPRE motifs (Roy and Lee 1999 Nucleic Acids Res. 27:1437), 5′-cgcgtcaCCAATcggaggcctCCACGaccaCCAATcggaggcctCCACGac-3′, (SEQ ID NO: 14) to the 40-Luc plasmid between the Mlu I and Xho I sites (Lee et al. 2000. Biochem J. 350 Pt1:131-138). UPRE reporter (5×ATF6GL3), pCGNATF6 and pCGNAF6 (1-373) were previously described (Wang et al. 2000. J. Biol. Chem. 275:27013). The pCDNA3.1 ([…]) driven expression vectors for mouse XBP-1s and XBP-1u/s were described elsewhere (Iwakoshi et al. 2003. Nature Immunology 4:321). pCDNA-dn-XBP was constructed by removing the region downstream of the Eco RV site of XBP-1s cDNA in the pCDNA-XBP-1s plasmid. TREhyg-XBP-1s and TREhyg-dn-XBP were constructed by inserting the XBP-1s cDNA and DN-XBP, respectively, into TRE2 hyg (Clontech) between the Pvu II and Sal I sites. […]

UPR target genes = assay: Genes induced by XBP-1s in MEF-tet-off-XBP-1s cells (gene array, Northern blot); type: cell-based; details: doxycycline removed for three days
Method: XBP-1s expression was induced by culturing the cells for three days in doxycycline free media or by treating with Tm for the indicated time. […] Total RNA was also prepared to measure the expression level of BiP, CHOP, ERdj4, p58^ipk and ATF6α mRNA. (B) Additional XBP-1 dependent target genes identified in gene profiling experiments (Table 2) confirmed by Northern analysis in both XBP-1s MEF-tet-off and XBP-1^−/− MEFs. Ethidium bromide staining of the gels before blotting are shown at the bottom.
293T and MEF cells derived from wild type and XBP-1^−/− embryos were cultured in DMEM supplemented with 10% fetal calf serum (Hyclone Laboratories). MEF-tet-off cells (Clontech) were maintained in the same media with the addition of 100 μg/ml G418 and 1 μg/ml doxycycline. XBP-1s inducible cells were obtained by transfecting MEF-tet-off cells with the TREhyg-XBP-1s plasmid and then selecting in the presence of 400 μg/ml hygromycin B. Several clones were tested for doxycycline-dependent XBP-1s expression, and one was selected for further experiments. MEF-dn-XBP cells were generated by transfecting MEF-tet-off cells with the TREhyg-dn-XBP plasmid. […] ATF6α and β knockdown MEF cells were generated by cotransfecting wild type MEF cells with U6-iATF6α and β and cmv-puromycin or transducing cells with retroviruses containing each RNAi vector.
Total RNA was isolated from MEF cells with TRIZOL reagent (Invitrogen, Carlsbad, Calif.). cDNA synthesis, hybridization and laser scanning of the array were carried out at the Gene Array Technology Center (Brigham and Women's Hospital, Boston, Mass.) with MG-U74A GeneChips which had 6,000 functionally characterized sequences and 6,000 ESTs from the UniGene database (Affymetrix, Santa Clara, Calif.) as recommended by Affymetrix. Data analysis was performed using Affymetrix GeneChip 3.1 software under default parameter setting.
To examine whether XBP-1 itself is sufficient to induce these UPR target genes, the tet-off system was used to establish a cell line in which the spliced form of XBP-1, XBP-1s, is placed downstream of a tetracycline dependent promoter. XBP-1s was induced by removing doxycycline in the culture medium for three days. […] To identify genes that were induced by XBP-1s, total RNAs were prepared from MEF-tet-off-XBP-1s cells cultured in the presence or absence of doxycycline and gene array analysis performed (Table 1). […] In addition, ˜23% of the total pool of analyzed UPR target genes were induced by XBP-1s, although the fold induction tended to be lower than upon Tm treatment. These UPR genes included Herp, BiP, Aremt, AW124049 EST and interferon beta. […] The expression of BiP, CHOP, ERdj4 and p58^ipk was confirmed by Northern blot analysis (FIG. 17A).

| Molecule | transactivation of the UPRE reporter by ATF6α / function of ATF6 (XBP-1 and ATF6α) | transactivation of the UPRE reporter by XBP-1s (XBP-1 and ATF6α) | transactivation of the UPRE reporter by ATF6α / function of ATF6 (XBP-1 and ATF6α; listed as dn-XBP-1) | ATF6α induction (UPR target genes) | BiP induction (UPR target genes) | CHOP induction (UPR target genes) | ERdj4 and p58ipk expression (UPR target genes) | share of analyzed UPR target genes induced (UPR target genes) |
| --- | --- | --- | --- | --- | --- | --- | --- | --- |
| dn-XBP: dominant negative XBP-1 containing the N-terminal 188 aa, lacking transactivation domain, retaining leucine zipper (protein) MVVVAAAPSAATAAPKVLLLSGQPASGGRALPLMVPGPRAAGSEASGTPQARKRQRLTHLSPEEKALRRKLKNRVAAQTARDRKKARMSELEQQVVDLEEENHKLQLENQLLREKTHGLVVENQELRTRLGMDTLDPDEVPEVEAKGSGVRLVAGSAESAAGAGPVVTSPEHLPMDSDTVASSDSESD | inhibited the transactivation of the UPRE reporter by ATF6α | completely abolished transactivation of the UPRE reporter by XBP-1s | potently inhibited the function of ATF-6 through heterodimerization |  |  |  |  |  |
| XBP-1s: vector encoding only the spliced form of murine XBP-1, a protein of 371 aa (protein) MVVVAAAPSAATAAPKVLLLSGQPASGGRALPLMVPGPRAAGSEASGTPQARKRQRLTHLSPEEKALRRKLKNRVAAQTARDRKKARMSELEQQVVDLEEENHKLQLENQLLREKTHGLVVENQELRTRLGMDTLDPDEVPEVEAKGSGVRLVAGSAESAAGAGPVVTSPEHLPMDSDTVASSDSESDILLGILDKLDPVMFFKCPSPESASLEELPEVYPEGPSSLPASLSLSVGTSSAKLEAINELIRFDHVYTKPLVLEIPSETESQTNVVVKIEEAPLSSSEEDHPEFIVSVKKEPLEDDFIPELGISNLLSSSHCLRPPSCLLDAHSDCGYEGSPSPFSDMSSPLGTDHSWEDTFANELFPQLISV |  |  |  | also induced by XBP-1s | only marginally induced | not significantly induced | sufficient to induce ERdj4 and p58^ipk expression | ~23% |
